Laboratory results: the nanobody polyreactivity screen of Harvey et al. (2022)

Assay: yeast display, Sf9 membrane polyspecificity reagent, FACS + sequencing; frameworks hold sequencing errors
How it was run: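 Galactose induction of a Saccharomyces cerevisiae BJ5465 synthetic nanobody display library ran 36–48 hours. The cells were then stained for 1 hour at 4 °C with 10% biotinylated, detergent-solubilized Sf9 membrane reagent, pulled down on streptavidin microbeads and FACS-sorted into low and high (top ~1%) gates on expression and reagent-binding fluorescence. Labels for polyreactivity follow the gate of origin.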

Sequence | polyreactivity (PSR sort gate)
QVQLVESGGGLVQAGGSLRLSCAASGFTFTTYVMGWYRQAPGKERELVAAISRRGTSTRYADSVKGRFTISRDNAKITVYLQMNSLKTEDTAVYFCAADRPYSIVPYDYWGQGTQVTVSS | high polyreactivity
QVQLVESGGGLVQAGGSLRLSCAASGFTFTVYAMGWYRPAPGKERELVAVITSGDGTYYADSVKGRFTISRDNAKNTVYLQMNSLKPEDTAVYYCNARRYSSFRYRFAYDYWGQGTQVTVSS | low polyreactivity
QVQLVESGGGLVQAGGSLRLSCAASGFTFTVYAMGWYRQAPGKERELVAVITAGDGTYYADSVKGRFTISRDNAKNTVYLQMNSLKPEDTAVYYCIALRYSSFRYLFAYDYWGQGTQVTVSS | low polyreactivity
QVQLVESGGGLVQAGGSLRLSCAASGFTFTWYAMGWYRQAPGKERELVAAISSGGGRTYYADSVKGRFTISRDNAKNTVYLQMNSLKPEDTAVYYCNAVAGGVYVDNGYDYWGQGTQVTVSS | high polyreactivity
QVQLVESGGGLVQAGGSLRLSCAASGFTFTWYAMGWYRQAPGKERELVAAISSGGGRTYYADSVKGRFTISRDNAKNTVYLQMNSLKPEDTAVYYCNKVSSFGYYYWGQGTQVTVSS | high polyreactivity
QVQLVESGGGLVQAGGSLRLSCAASGFTFTYYAMGWYRQAPGKERELVAAISWRGTSTFYADSVKGRFTISRDNAKNTVYLQMNSLKPEDTAVYYCATEKWVGYKYWSSRKYDYWGQGTQVTVSS | high polyreactivity
QVQLVESGGGLVQAGGSLRLSCAASGFTFTYYAMGWYRQAPGKERELVATISSGGSTYYADSVKGRFTISRDNAKNTVYLQMNSLKPEDTAVYYCAAERGAITPLVYPPEFDYWGHGTQVTVSS | low polyreactivity
QVQLVESGGGLVQAGGSLRLSCAASGFTFVAYAMGWYRQAPGKERELVAAIRRTDTSTYYADSVKGRFTISRDNAKNTVYLQINSLKPEDTAVYYCAADYWRRTYLGFDYWGQGTQVTVSS | low polyreactivity
QVQLVESGGGLVQAGGSLRLSCAASGFTFVEYAMGWYRQATGKERELVAAITSGGSTYYADSVKGRFTISRDNAKNTVYLQMNSLKPADTAVYYCNAEGVVVAISHFSVQDGYWGQGTQVTVSS | low polyreactivity
QVQLVESGGGLVQAGGSLRLSCAASGFTFVGNAMGSYRQAPGKERELVAAITWSGGRTYYADSVKGRFTISRDNAKNTVYLQMNSLKPEDTAVYYCNKLVERWYGYWGQGTQVTVSS | high polyreactivity
QVQLVESGGGLVQAGGSLRLSCAASGFTFVGNAMGWSRQAPGKERELVATITSGGNTKYADSVKGRFTISRDNAKNTVYLQMHSLKPEDTAVYYCAAAKYNYRRFNYWGQGTQVTVSS | low polyreactivity
QVQLVESGGGLVQAGGSLRLSCAASGFTFVGNAMGWYRQAAGKEWELVADITGSDGSTYYADSVKGRFTISRDNAKNTVYLQINSLKPEDTAVYYCAASPPYKLVWWRRMDYWGQGTQVTVSS | low polyreactivity
QVQLVESGGGLVQAGGSLRLSCAASGFTFVGNTMGWYRQAPGKERELVAAIRGRDGRTYYADSVKGRFTISRDNAKNTVYLQMNSLKPEDTAVFYCNAVGFVWYFDVYSYFTEIKYDYWGQGTQVTVSS | low polyreactivity
QVQLVESGGGLVQAGGSLRLSCAASGFTFVGYAMGWYRQAPGKERELVAAITGRGGTTYYADSVKGRFTISRDNAKNTVYLQMNSLKPEDTAVYYSNADSYITYVQYLYARSWMDYWGQGTQVTVSS | low polyreactivity
QVQLVESGGGLVQAGGSLRLSCAASGFTFVINDMGLYRQAPGKERELVADITSGGDTYYADSVKGRFTISRDNAKNTVYLQMNSLKPEDTAVYYCAADIYPDWIYLLYGYWGQGTQVTVSS | low polyreactivity
QVQLVESGGGLVQAGGSLRLSCAASGFTFVKNAMGWYRQAPGKERELVAAITGSAGRTYYADSVKGRFTISRDNAKNTVYLQMNSLKPEDTAVYYCAAPRFAAPRRIGYDWGQGTQVTVSS | high polyreactivity

Sequence | polyreactivity (PSR sort gate)
QVQLVESGGGLVQAGGSLRLSCAASGFTFVKYAMGWYRQAPGKERELVAAISRSGGRTYYADSVKGRFTISLDNAKNTVYLQMNSLKPEDTAVYYCAADVATTHELDYWGQGTQVTVSS | high polyreactivity
QVQLVESGGGLVQAGGSLRLSCAASGFTFVLYAMGWYRQAPGKERELVATITSSGRTNYADSVKGRFTISRDNAKNTVYLQMNSLKPEDTAVYYCAARGGRRYDYWGQGTQVTVSS | high polyreactivity
QVQLVESGGGLVQAGGSLRLSCAASGFTFVRNVMGWYRQAPGKERELVAAINTGGTTDYADSVKGRFTISRDNAKNTVYLQMNSLKPEDTAVYNCNADYDSQYHYLLRYDYWGQGSQVTVSS | low polyreactivity
QVQLVESGGGLVQAGGSLRLSCAASGFTFVRYAMGWYRQAPGKEREFVASISARGGNTFYADSVKGRFTISRDNAKNTVYLQMNSLKPEDTAVYYCNALTYFKRSEYYWGQGTQVTVSS | high polyreactivity
QVQLVESGGGLVQAGGSLRLSCAASGFTFVRYVMGWYRQAPGKERELVAAISRSGGSTHYADSVKGRFTISRDNAKNTVYLQMNSLKPEDTAVYYCNAYGYRHRGNGYWGQGTQVTVSS | high polyreactivity
QVQLVESGGGLVQAGGSLRLSCAASGFTFVSYAMGWSRQAPGKERELVATITSDGSTNYADSVKGRFTISRDNAKNTVYLQMNSLKPEDTAVYYCAADIHYYPGYLAYDYWGQGTQVTVSS | low polyreactivity
QVQLVESGGGLVQAGGSLRLSCAASGFTFVSYAMGWYRQEPGKEREFVASISARGGNTFYADSVKGRFTISRDNAKNTVYLQMNSLKPEDTAVYYCAKRGPYGTGYGYWGQGTQLTVSS | high polyreactivity
QVQLVESGGGLVQAGGSLRLSCAASGFTFVVNAMGWYRQAPGKERELVATIRSNGGSTYYADSVKGRFTISRDNAKNTVYLQMNSLKPEDTAVYYCAATATDTKYGYWGQGTQVTVSS | low polyreactivity
QVQLVESGGGLVQAGGSLRLSCAASGFTFVYNAMGWYRQAPGKERELVAAISSRGGSTFYADSVKGRFTISRDNAKNTVYLQMNSLKPEDTAVYYCNAVPGWTYDYWGQGTQVTVSS | high polyreactivity
QVQLVESGGGLVQAGGSLRLSCAASGFTFVYYTMGWYRQAPGKERELVAAITSRGGNTYYADSVKGRFTISRDNAKNTVYLQMNSLKPEDTAVYYCAARRITTYYYWGQGTQVTVSS | high polyreactivity
QVQLVESGGGLVQAGGSLRLSCAASGFTFVYYVMGWYRPAPGKERELVAAISWSGGRTYYADSVKGRFTISRDNAKNTVYLQMNSLKPDDTAVYYCAAVRPYYYPLPTVPNLPYDYWGQGTQVTVSS | high polyreactivity
QVQLVESGGGLVQAGGSLRLSCAASGFTFVYYVMGWYRQAPGKERELVAAITYSGGSTYYADSVKGRFTISRDNAKNTVYLHMNSLKPEDTAVYYCAKEVQTYWYHYYYWGQGTQVTVSS | high polyreactivity
QVQLVESGGGLVQAGGSLRLSCAASGFTFWAYAMGWYRPAPGKERELVARISGSGGRTYYADSVKGRFTISRDNAKNTVYLQMNSLKPEDTAVYYCAARRYYYPVGYDYWGEGTQVTVSS | high polyreactivity
QVQLVESGGGLVQAGGSLRLSCAASGFTFWDNAMGWYRQAPGKERELVAAISRRGGTTYYADSVKGRFTISRDNAKNTVYLQMNRLKPEATAVYYCNARRRSVPYRYDFWGQGTQVTVSS | high polyreactivity
QVQLVESGGGLVQAGGSLRLSCAASGFTFWDYAMGWYRQAPGKERELVAAISSRGTRTYYADSVKGRFTISRDNAKNTVYFQMNSLKPEDTAVYYCATAIPDPDYIHNYWGQGTQVTVSS | high polyreactivity
